Measured values published in US20200399385A1 (Bristol-Myers Squibb, published 2020).

What was measured:
human OX40 on cells [1] = target: T1, human OX40 on cells (human, UniProt P43489 29-277); assay: cell-based or functional assay
T1 sequence: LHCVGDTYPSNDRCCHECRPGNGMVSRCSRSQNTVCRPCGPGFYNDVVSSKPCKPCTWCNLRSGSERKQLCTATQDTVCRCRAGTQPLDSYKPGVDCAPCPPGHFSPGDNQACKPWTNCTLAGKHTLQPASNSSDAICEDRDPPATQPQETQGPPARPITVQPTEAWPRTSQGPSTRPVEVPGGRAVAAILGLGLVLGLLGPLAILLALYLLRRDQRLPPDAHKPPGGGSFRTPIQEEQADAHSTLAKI

human OX40 on cells [2] = target: T1, human OX40 on cells; assay: FACS, blocking of OX40L-His (0.2 µg/mL) binding to hOX40-293 cells
Procedure: Briefly, 293 cells stably transfected with human OX40 were first pre-incubated with varying concentrations of anti-OX40 antibodies. […] The fluorescence intensity of the staining was measured using a FACSCanto II flow cytometer (Becton Dickinson).

human OX40 on cells [3] = target: T1, human OX40 on cells; assay: FACS competition on HT1080-hOX40 cells against APC-OX40.1 (FL2 MFI); the table gives no unit, axis 'Ab conc nM'
Procedure: (§1) This experiment was performed to test the cross-blocking properties of various anti-OX40 antibodies to assess binding specificities. […] Cells were washed and if necessary further incubated in the presence of streptavidin-APC conjugate under the same conditions. After the final wash, cells were analyzed on a FACSCanto flow cytometer (BD Bioscience, San Jose, Calif.). Mean fluorescence intensity (MFI) signal was proportional to bound conjugated antibody.

human OX40 on cells [4] = target: T1, human OX40 on cells; assay: FACS, activated human T cells; mean ± SD, n=2
Procedure: (§2) Cells were activated for several days before the binding assay in order to induce OX40 expression. Briefly, PBMCs were cultured for three or four days with magnetic beads coated with anti-human CD3 plus anti-human CD28, in the presence of recombinant human IL-2. On the day of the assay, the beads were removed and the cells stained with a titration of each anti-OX40 antibody. Bound antibodies were detected with a fluorescently conjugated anti-human IgG polyclonal secondary antibody, and the cells were co-stained for CD4 and CD25 to detect activated CD4 T cells. The fluorescence intensity of the staining was measured using a FACSCanto II flow cytometer (Becton Dickinson). The geometric mean fluorescence intensity (GMFI) or median fluorescence intensity (MedFI) of anti-OX40 antibody staining was calculated for the CD4+CD25+ population (FACSDiva software). EC₅₀s for antibody binding were calculated using GraphPad Prism software.

[5] = target: T2, his-tagged soluble human OX40 (huOX40-6xhis) (human, UniProt P43489 29-214); assay: SPR, mAb captured on anti-human CH1, OX40-6XHIS analyte, 1:1 fit
T2 construct: made in-house; also called Human-OX40-6XHIS; hOX40; not shown: hexahistidine tag
T2 sequence: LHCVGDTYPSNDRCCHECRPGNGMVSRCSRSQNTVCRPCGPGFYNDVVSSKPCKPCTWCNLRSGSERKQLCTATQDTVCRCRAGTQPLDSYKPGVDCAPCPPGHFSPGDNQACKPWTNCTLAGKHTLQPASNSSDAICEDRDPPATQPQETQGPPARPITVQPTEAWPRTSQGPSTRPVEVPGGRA
Procedure: The affinity of several OX40 antibodies for soluble human OX40 was tested by SPR analysis. […] Human-OX40-6XHIS antigen in either a single concentration of 400 nM or a 1:2 serial dilution from 400 nM was used. Experiments were carried out on BIACORE® T200 or BIACORE® 3000 SPR instruments. Data was fit to a 1:1 model.

cynomolgus OX40 on cells [6] = target: T3, cynomolgus OX40 on cells (cynomolgus, UniProt P43489 29-277 (human entry)); assay: FACS, activated cyno T cells; mean ± SD, n=4
T3 construct: also called cynoOX40-CHO
T3 chain: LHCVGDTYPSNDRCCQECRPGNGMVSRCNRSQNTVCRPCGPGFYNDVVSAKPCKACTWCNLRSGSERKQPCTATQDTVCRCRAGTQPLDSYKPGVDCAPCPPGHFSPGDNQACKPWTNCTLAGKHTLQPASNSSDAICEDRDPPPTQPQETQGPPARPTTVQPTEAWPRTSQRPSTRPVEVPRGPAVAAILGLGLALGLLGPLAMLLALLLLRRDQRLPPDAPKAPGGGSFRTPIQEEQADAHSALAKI
Procedure: (§3) Briefly, cells were activated for several days before the binding assay in order to induce OX40 expression. Total leukocytes were isolated from cynomolgus macaque peripheral blood by lysis of red blood cells using an ammonium chloride buffer. The leukocytes were then cultured for four to five days with in flasks pre-coated with anti-human CD3 plus anti-human CD28 antibodies that cross-react with cynomolgus macaque, in the presence of recombinant human IL-2, in order to expand and activate T cells. On the day of the assay, the cells were harvested and stained with a titration of each anti-OX40 antibody. Bound antibodies were detected with a fluorescently conjugated anti-human IgG polyclonal secondary antibody, and the cells were co-stained for CD4 and CD25 to detect activated CD4 T cells. The fluorescence intensity of the staining was measured using a FACSCanto II flow cytometer (Becton Dickinson). The geometric mean fluorescence intensity (GMFI) or median fluorescence intensity (MedFI) of anti-OX40 antibody staining was calculated for the CD4+CD25+ population (FACSDiva software). Dose-response curves were generated and EC50s for antibody binding were calculated using GraphPad Prism software.

human OX40 on cells [7] = target: T1, human OX40 on cells; assay: FACS, activated human T cells; mean ± SD, n=3
Procedure: as §2

human OX40 on cells [8] = target: T1, human OX40 on cells; assay: FACS competition on hOX40-293 cells against biotin-OX40.5 (spike biotOX.5 @ 0.4 ug/mL, streptavidin-APC); FL4-MFI falls from about 8700 to about 4100; the table gives no unit, axis in nM
Procedure: as §1

cynomolgus OX40 on cells [9] = target: T3, cynomolgus OX40 on cells; assay: FACS, activated primary cynomolgus macaque CD4+/CD25+ T cells, purified recombinant antibody, fluorescent anti-human IgG secondary (APC GMFI)
Procedure: as §3
The same experiment was performed with anti-OX40 antibodies with variable region substitutions.

cynomolgus OX40 on cells [10] = target: T3, cynomolgus OX40 on cells; assay: FACS, activated cyno T cells; mean ± SD, n=3
Procedure: as §3

human OX40 on cells [11] = target: T1, human OX40 on cells; assay: cell-based or functional assay; remark: listed apart in the source
human OX40 on cells [12] = target: T1, human OX40 on cells; assay: FACS, activated primary human CD4+/CD25+ T cells, purified recombinant antibody, fluorescent anti-human IgG secondary (APC GMFI)
Procedure: as §2

B1: 8B11 (antibody, V domains shown)
VH: EIQLVQSGGGLVHPGGSLRLSCAGSGFTFSSDAMYWVRQAPGKGLEWVSAIGIGGDTYYTDSVMGRFTISRDNAKNSLYLQMNSLRAEDMAVYYCARLGMGYYFDYWGQGTLVTVSS
VL: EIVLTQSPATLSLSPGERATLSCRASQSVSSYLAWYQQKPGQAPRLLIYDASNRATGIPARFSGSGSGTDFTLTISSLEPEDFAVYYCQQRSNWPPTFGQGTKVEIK
notes: also called 8B11.H9.C1; 8B11.H9
Proliferation EC50, CD4 T cells + CHO-CD3-CD32A (human OX40 on cells [1]): 0.022 nM
EC50 (human OX40 on cells [2]): 0.45 nM
IC50 (human OX40 on cells [3]): 1.41 nM
EC50 (human OX40 on cells [4]): 0.14 nM
Kd [5]: 10.5 nM
koff [5]: 0.00051 s⁻¹
kon [5]: 48000 M⁻¹ s⁻¹
EC50 (cynomolgus OX40 on cells [6]): 0.2 nM

B2: 23H3 (antibody, V domains shown)
VH: EVQLVQSGGGLVHPGGSLRLSCAGSGFTFSNYAMYWVRQAPGKGLEWVSAIGIGGDTFYTDSVKGRFTISRDNAKNSLSLQMNSLRAEDMAVYYCARMGTGYFFDYWGQGTLVTVSS
VL: EIVLTQSPATLSLSPGERATLSCRASQSVSSYLAWYQQKPGQAPRLLIYDASNRATGIPARFSGSGSGTDFTLTISSLEPEDFAVYYCQQRSNWPLTFGPGTKVDIK
notes: also called 23H3.C6
Proliferation EC50, CD4 T cells + CHO-CD3-CD32A (human OX40 on cells [1]): 0.028 nM
EC50 (human OX40 on cells [7]): 0.15 nM
EC50 (human OX40 on cells [2]): 0.38 nM
EC50 (human OX40 on cells [8]): 3.68 nM
Kd [5]: 3.6 nM
koff [5]: 0.000395 s⁻¹
kon [5]: 110000 M⁻¹ s⁻¹
EC50 (cynomolgus OX40 on cells [6]): 0.18 nM

B3: OX40.17 (antibody, human IgG1, kappa, V domains shown)
VH: EVQLVESGGGLVQPGGSLRLSCAASGFTFSSYDMHWVRQTTGKGLEWVSVIGTAGDTYYPGSVKGRFTISRENAKNSLYLQMNSLRAGDTAVYYCARGGMGNYFDYWGQGTLVTVSS
VL: EIVLTQSPATLSLSPGERATLSCRASQSVSSYLAWYQQKPGQAPRLLIYDASNRATGIPARFSGSGSGTDFTLTISSLEPEDFAVYYCQQRSNWPLTFGGGTKVEIKR
EC50 (read off the curve) (cynomolgus OX40 on cells [9]): ~0.4 nM
IFNγ EC50, CD4 T cells + CHO-CD3-CD32A (human OX40 on cells [1]): 0.044 nM
Proliferation EC50, CD4 T cells + CHO-CD3-CD32A (human OX40 on cells [1]): 0.009 nM
EC50 (cynomolgus OX40 on cells [10]): 0.52 nM
EC50 (human OX40 on cells [7]): 0.26 nM
IL-2 EC50, SEB PBMC, donor BMS-001 (human OX40 on cells [11]): 0.41 nM
IL-2 EC50, SEB PBMC, donor BMS-004 (human OX40 on cells [11]): 1.03 nM
IL-2 EC50, SEB PBMC, donor BMS-009 (human OX40 on cells [11]): 0.97 nM
IL-2 EC50, SEB PBMC, donor BMS-012 (human OX40 on cells [11]): 1.74 nM
IL-2 EC50, SEB PBMC, donor BMS-015 (human OX40 on cells [11]): 1.16 nM
IL-2 EC50, SEB PBMC, donor BMS-016 (human OX40 on cells [11]): 1.4 nM
IL-2 EC50, SEB PBMC, donor WB10024 (human OX40 on cells [11]): 1.06 nM
IL-2 EC50, SEB PBMC, donor WB10025 (human OX40 on cells [11]): 1.35 nM
IL-2 EC50, SEB PBMC, donor WB10026 (human OX40 on cells [11]): 1.68 nM
IL-2 EC50, SEB PBMC, donor WB10027 (human OX40 on cells [11]): 1.15 nM
IL-2 EC50, SEB PBMC, donor WB10137 (human OX40 on cells [11]): 0.92 nM
IL-2 Mean EC50, SEB PBMC, all donors (human OX40 on cells [11]): 1.17 nM
EC50 (read off the curve) (human OX40 on cells [12]): ~0.2 nM
